Test results: patent US20220112292A1 (ALETA BIOTHERAPEUTICS, published 2022)

B1: VHH clone 2C2 (VHH)
VHH: QVQLQQSGGGLVQAGGSLTLSCAATGRTIDNGAMAWFRQAPGKQRELVAAINWSGGATFYTDSVKYRFTISRDNVRHTLDLQMTSLKPEDTTIYFCASRRGVDLRRNSYEYDYWGRGTLVTVSS
notes: Includes myc and His tags
B2: 1C6 (VHH)
VHH: QVQLQESGGALVQAGGSLRLSCAASGLTFSNYAMGWFRQAPGKEREFVAAINWSGGTTDYATSVKGRFTISRDNAKNTVYLQLNSLKPEDTAVYYCAASYRLRITVVVTPDEYHYWGQGTLVTVSS
notes: also called VHH clone 1C6
B3: VHH clone 1H1 (VHH)
VHH: QVQLQESGGGLVQPGGSLRLSCAASGFTFNSYAMTWVRQAPGKGLEWVSDINSGGGSTNYADSVKGRFTISRDNAKNTLYLQMNSLKPEDTAVYYCATELRGSDYYRGPIREYAYWGQGTLVTVSS
notes: includes myc and His tags; also called 2F4
B4: VHH clone 2H3 (VHH)
VHH: QVQLQESGGGLVQAGGSLRLSCVASGSIRSINVMGWYRQAPGKQRELVAACASDGNTYYADSVKGRFTISRDNAEKTVYLQMNNLKPDDTAVYYCDANSRGNYYSGQGTQVTVSS
notes: Includes myc and His tags; also called 2H3 VHH-Myc-His; VHH 2H3

Tests used:
CLL-1 on U937 cells [1] = biological target: T1, CLL-1 on U937 cells (human, UniProt Q5QGZ9 1-265); experiment: flow cytometry on U937 cells, clone lysate, anti-cMyc-PE (Table 3 summary)
T1 construct: whole, on cells; also called CLEC12A; Clec12A
T1 sequence: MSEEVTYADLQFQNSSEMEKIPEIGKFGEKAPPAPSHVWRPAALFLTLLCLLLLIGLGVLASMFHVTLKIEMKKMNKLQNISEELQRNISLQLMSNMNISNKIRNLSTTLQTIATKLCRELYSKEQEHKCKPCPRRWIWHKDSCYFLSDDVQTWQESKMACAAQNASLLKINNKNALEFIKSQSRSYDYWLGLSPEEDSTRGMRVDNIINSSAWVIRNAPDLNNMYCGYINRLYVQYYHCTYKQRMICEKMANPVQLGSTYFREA

[2] = biological target: T2, Clec12A-His (Sino Biological, 11896-H07H) (human, UniProt Q5QGZ9 65-265); experiment: competition ELISA on coated CLEC12a-His, biotinylated VHH against unlabelled VHH
T2 construct: Bought soluble protein; also called soluble CLEC12a-His; Sino Biological Clec12A
T2 chain: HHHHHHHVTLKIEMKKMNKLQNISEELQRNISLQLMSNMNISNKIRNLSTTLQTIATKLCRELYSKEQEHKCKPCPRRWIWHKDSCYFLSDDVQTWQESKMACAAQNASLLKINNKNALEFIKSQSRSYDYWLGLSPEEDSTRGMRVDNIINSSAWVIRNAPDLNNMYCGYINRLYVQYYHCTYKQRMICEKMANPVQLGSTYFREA
Description: (§1) ELISAs were used to determine if the VHH clones recognized distinct or similar epitopes. […] The plate was blocked with 0.3% nonfat milk in TBS (200 ul/well) for 1 hr at RT. The plates were washed 3× with 1×TBST (0.1 M Tris, 0.5 M NaCl and 0.05% Tween-20). The test anti-CLEC12a VHHs were added at 10 ug/ml horizontally across the plate, 100 ul per well and incubated for 1 h. Without washing, the test anti-CLEC12a biotinylated VHHs were added at 0.2 ug/ml vertically down the plate, 100 ul per well and incubate for 1 h. After being washed 3× with 1×TBST, HRP-conjugated streptavidin (Pierce #21130) at 1:2000 (100 ul/well) was added, followed by incubation at RT in the dark for 1 hr. For detection, 1-Step Ultra TMB-ELISA reagent (Thermo Fisher #34028) was added at 100 ul per well and read at 450 nm. […] The 1H1 VHH was distinct from these, and 2C2 was intermediate. Results are depicted in FIGS. 7A-7D.

CLL-1 on U937 cells [3] = biological target: T1, CLL-1 on U937 cells; experiment: flow cytometry on U937 cells, a-cMyc then a-msIgG-PE
Description: (§2) Additional VHH clones were assessed for binding to U937. […] Clones tested: 1A10: stock=0.9 mg/ml; 1B1: stock=0.9 mg/ml; […]: stock=1.5 mg/ml; 2C8: stock=0.9 mg/ml; 1D2: stock=0.06 mg/ml. Previous clone as control 2F5: stock=0.5 mg/ml.

CLL-1 on U937 cells [4] = biological target: T1, CLL-1 on U937 cells; experiment: flow cytometry on U937 cells, clone at 3ug/ml, a-Myc then a-mIgG-PE; no clone 0.6% and 64,740.2, unstained 0.0% and 4,885.0
Description: as §2

CLL-1 on U937 cells [5] = biological target: T1, CLL-1 on U937 cells; experiment: flow cytometry on U937 cells, 3x serial dilutions from 3 ug/ml, anti-His-PE
Description: (§3) U937 cell binding by VHH clones was assessed using varying doses to determine EC50s. Briefly, the method included: VHH clones (3 ug/ml as starting conc./test, with 3× serial dilutions) in FACS buffer were added to Fc blocked U937 or 293T-CLL1 cells (2.5×10\hat{ }5), the mixtures were incubated for 30 min at 4° C., then washed twice with FACS buffer by spinning at 500G for 2 min; anti-His-PE was added to cells, the mixture was incubated for 30 min at 4° C. and washed twice with FACS buffer by spinning at 500G for 2 min; 1% PFA (Paraformaldehyde) in PBS was added to cell pellet to fix the cells, followed by FACS analysis. VHH clones tested: 1B5: stock=1.6 mg/ml; 1H1: stock=1.9 mg/ml; 1G6: stock=1.1 mg/ml; 2F3: stock=1.45 mg/ml; 2F5: stock=0.5 mg/ml; 2H3: stock=2 mg/ml.

CLL-1 on U937 cells [6] = biological target: T1, CLL-1 on U937 cells; experiment: flow cytometry on U937 cells, VHH in 3-fold dilutions, detected with a-His-PE; percent of cells positive
Description: as §3

[7] = biological target: T2, Clec12A-His (Sino Biological, …); experiment: ELISA on plate coated with CLEC12a-His; unlabeled VHH at 10 ug/ml first, biotinylated VHH at 0.2 ug/ml second, streptavidin-HRP
Description: as §1

CLL-1 on U937 cells [8] = biological target: T1, CLL-1 on U937 cells; experiment: flow cytometry on U937 cells, VHH at 3 ug/ml, detected with a-His-PE; a-His-PE alone 1.1% and 5,576.5, unstained 0.6% and 5,793.5
Description: U937 cell binding by VHH clones was assessed. Briefly, the method included: U937 cells (2.5×10\hat{ }5) were Fc blocked (human Fc block, BD Cat. #BDB564220) for 10 min at room temperature, then washed once with FACS buffer (PBS+1% BSA+0.1% Sodium Azide) by spinning at 500G for 2 min; VHH clones (3 μg/ml as final conc) in FACS buffer were added to the cell pellets and incubated for 30 min at 4° C., then washed twice with FACS buffer by spinning at 500G for 2 min; anti-His-PE (R&D Systems, Cat. #IC050P) was added to cells; the mixture was incubated for 30 min at 4° C. and washed twice with FACS buffer by spinning at 500G for 2 min; 1% PFA (Paraformaldehyde) in PBS was added to cell pellet to fix the cells, followed by FACS analysis. VHH clones tested: 1B5: stock=1.6 mg/ml; 1H1: stock=1.9 mg/ml; 1G6: stock=1.1 mg/ml; 2F3: stock=1.45 mg/ml; 2F5: stock=0.5 mg/ml; 2H3: stock=2 mg/ml. As shown in FIGS. 2A-2C, binding of clones 1H1, 1G6, 2F5 and 2H3 to U937 cells was detected with anti-His-PE; very little binding of clones 1B5 and 2F3 to U937 cells could be detected by anti-His-PE.

CLL-1 on U937 cells [9] = biological target: T1, CLL-1 on U937 cells; experiment: flow cytometry on U937 cells, % binding against ng/ml, detected with a-His-PE; EC50 of the fitted curve; the curve of 1H1 reaches about 70% at 3000 ng/ml without a plateau
Description: as §3

[10] = biological target: T3, Clec12A (ABclonal, RP01018) (human, UniProt Q5QGZ9-1 75-275, limits assumed); experiment: ELISA: coated with clec12a, then 2H3, anti-myc, HRP-anti-mIgG; OD405
T3 construct: Bought recombinant protein; also called ABclonal Clec12A; Clec12A from AbClonal
T3 sequence: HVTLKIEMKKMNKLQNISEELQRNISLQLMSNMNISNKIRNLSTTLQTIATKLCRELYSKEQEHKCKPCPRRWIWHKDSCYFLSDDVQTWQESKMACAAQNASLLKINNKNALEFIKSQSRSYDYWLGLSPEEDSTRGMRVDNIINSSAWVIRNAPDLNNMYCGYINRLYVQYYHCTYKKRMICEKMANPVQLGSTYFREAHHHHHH
Description: (§4) The ability of VHH clones to recognize commercially available recombinant Clec12a proteins was tested by ELISA. […] The plate was blocked with 200 μl/well 0.3% non-fat milk in Tris buffered saline (TBS) for 1 hr at room temperature (RT). Then, the plates were washed 3× with wash buffer (1×TBST: 0.1 M Tris, 0.5 M NaCl, 0.05% Tween 20). Next, 100 μl of the 2H3 VHH-Myc-His (SEQ ID NO: 15, purified by ProSci), was added starting at 5 μg/ml with 3 fold dilutions, and incubated for 1 h at RT. The plate was washed 3× with wash buffer and 100 μl of 1 ug/ml anti-Myc antibody (NOVUS/Fisher, NBP2-37822) was added per well. The plate was incubated for 1 h at RT and then washed 3× with wash buffer. Following the wash step, 100 μl of a 1:2000 dilution of HRP-anti-mIgG (Jackson ImmunoResearch, 115-035-062) was added per well and incubated at RT in the dark for 1 hr. […] This experiment was repeated twice.

[11] = biological target: T2, Clec12A-His (Sino Biological, …); experiment: ELISA, upper graph (first experiment): coated with clec12a, then 2H3, anti-myc, HRP-anti-mIgG; OD405
Description: as §4

[12] = biological target: T2, Clec12A-His (Sino Biological, …); experiment: ELISA, lower graph (second experiment): coated with clec12a, then 2H3, anti-myc, HRP-anti-mIgG; OD405
Description: as §4

CLL-1 on U937 cells [13] = biological target: T1, CLL-1 on U937 cells; experiment: flow cytometry on U937 cells, % binding against ng/ml, detected with a-His-PE; EC50 of the fitted curve
Description: as §3

| Binder | % FACS positive (CLL-1 on U937 cells [1]) [%] | EC50 (CLL-1 on U937 cells [5]) [nM] | % binding at 1.4 ng/ml (CLL-1 on U937 cells [6]) [%] | % binding at 4.1 ng/ml (CLL-1 on U937 cells [6]) [%] | % binding at 12.3 ng/ml (CLL-1 on U937 cells [6]) [%] | % binding at 37.0 ng/ml (CLL-1 on U937 cells [6]) [%] | % binding at 111.1 ng/ml (CLL-1 on U937 cells [6]) [%] | % binding at 333.3 ng/ml (CLL-1 on U937 cells [6]) [%] | % binding at 1000 ng/ml (CLL-1 on U937 cells [6]) [%] | % binding at 3000 ng/ml (CLL-1 on U937 cells [6]) [%] | % of This Plot (R3 PE+) (CLL-1 on U937 cells [8]) [%] | Mean FL2-A (R3 gate) (CLL-1 on U937 cells [8]) | other results |
| --- | --- | --- | --- | --- | --- | --- | --- | --- | --- | --- | --- | --- | --- |
| B1 | 77.2 | – | – | – | – | – | – | – | – | – | – | – | binding result [2]: binds |
| B2 | – | – | – | – | – | – | – | – | – | – | – | – | binding result (CLL-1 on U937 cells [3]): no binding (tested: 3ug/ml); % of This Plot (R3) (CLL-1 on U937 cells [4]): 6%; Mean FL2-A (R3 gate) (CLL-1 on U937 cells [4]): 12300 |
| B3 | 10.8 | 81 | 0.6 | 0.7 | 0.7 | 0.9 | 2.1 | 10.4 | 35.7 | 71 | 88.6 | 6730 | binding result [7]: binds; EC50 (CLL-1 on U937 cells [9]): 1.37 µg/mL |
| B4 | 94.3 | 0.35 | 6.2 | 33.5 | 70.5 | 89 | 89.4 | 89.9 | 90.3 | 88.7 | 93.8 | 8130 | binding result [10]: no binding (tested: about 5000 ng/ml); EC50 [11]: 0.0661 µg/mL; EC50 [12]: 0.0625 µg/mL; EC50 (CLL-1 on U937 cells [13]): 0.00547 µg/mL |
